± gives the uncertainty stated by the source.

We go through 14 variants from the supplement of paper PMC12338614.

To fix the notation:
B1: library; numbered along this chain (parent)
chain: MEVVDPQQLGMFTEGELMSVGMDTFIHRIDSTEVIYQPRRKRAKLIGKYLMGDLLGEGSYGKVKEVLDSETLCRRAVKILKKKKLRRIPNGEANVKKEIQLLRRLRHKNVIQLVDVLYNEEKQKMYMVMEYCVCGMQEMLDSVPEKRFPVCQAHGYFCQLIDGLEYLHSQGIVHKDIKPGNLLLTTGGTLKISDLGVAEALHPFAADDTCRTSQGSPAFQPPEIANGLDTFSGFKVDIWSAGVTLYNITTGLYPFEGDNIYKLFENIGKGSYAIPGDCGPPLSDLLKGMLEYEPAKRFSIRQIRQHSWFRKKHPPAEAPVPIPPSPDTKDRWRSMTVVPYLEDLHGADEDEDLFDIEDDIIYTQDFTVPGQVPEEEASHNGQRRGLPKAVCMNGTEAAQLSTKSRAEGRAPNPARKACSASSKIRRLSACKQQ

In this data set the parent is B1. Kind of data set: STK11 functional score (HeLa growth suppression), rescaled enrichment; synonymous median = 1, nonsense median = 0 (normalised score). Particulars: with HeLa; variant type: missense. Here is the method: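 Deep mutational scan (TileSeq/POPCode codon randomisation) of full-length codon-optimised STK11 cDNA integrated at a Bxb1 landing pad (AAVS1) in HeLa cells. Restoring functional STK11 suppresses HeLa proliferation. Variant frequencies were measured by NGS before and after about two weeks of growth. The error-corrected enrichment log-ratio was rescaled so that synonymous median = 1 and nonsense median = 0, scores above 1 were compressed, and codon-level and three biological replicate scores were combined; error is the bootstrapped standard error. Scale: synonymous median = 1, nonsense median = 0; below 0.5 = damaging.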
Consider MEVVDPQQLGMFTEGELMSVGMDTFIHRIDSTEVWYQPRRKRAKLIGKYLMGDLLGEGSYGKVKEVLDSETLCRRAVKILKKKKLRRIPNGEANVKKEIQLLRRLRHKNVIQLVDVLYNEEKQKMYMVMEYCVCGMQEMLDSVPEKRFPVCQAHGYFCQLIDGLEYLHSQGIVHKDIKPGNLLLTTGGTLKISDLGVAEALHPFAADDTCRTSQGSPAFQPPEIANGLDTFSGFKVDIWSAGVTLYNITTGLYPFEGDNIYKLFENIGKGSYAIPGDCGPPLSDLLKGMLEYEPAKRFSIRQIRQHSWFRKKHPPAEAPVPIPPSPDTKDRWRSMTVVPYLEDLHGADEDEDLFDIEDDIIYTQDFTVPGQVPEEEASHNGQRRGLPKAVCMNGTEAAQLSTKSRAEGRAPNPARKACSASSKIRRLSACKQQ [I35W], for which the STK11 functional score is 1.61 ± 0.3.
For MEVVDPQQLGMFTEGELMSVGMDTFIHRIDSTEVRYQPRRKRAKLIGKYLMGDLLGEGSYGKVKEVLDSETLCRRAVKILKKKKLRRIPNGEANVKKEIQLLRRLRHKNVIQLVDVLYNEEKQKMYMVMEYCVCGMQEMLDSVPEKRFPVCQAHGYFCQLIDGLEYLHSQGIVHKDIKPGNLLLTTGGTLKISDLGVAEALHPFAADDTCRTSQGSPAFQPPEIANGLDTFSGFKVDIWSAGVTLYNITTGLYPFEGDNIYKLFENIGKGSYAIPGDCGPPLSDLLKGMLEYEPAKRFSIRQIRQHSWFRKKHPPAEAPVPIPPSPDTKDRWRSMTVVPYLEDLHGADEDEDLFDIEDDIIYTQDFTVPGQVPEEEASHNGQRRGLPKAVCMNGTEAAQLSTKSRAEGRAPNPARKACSASSKIRRLSACKQQ [I35R], the STK11 functional score was found to be 1.61 ± 0.21.
Under MEVVDPQQLGMFTEGELMSVGMDTFIHRIDSTEVPYQPRRKRAKLIGKYLMGDLLGEGSYGKVKEVLDSETLCRRAVKILKKKKLRRIPNGEANVKKEIQLLRRLRHKNVIQLVDVLYNEEKQKMYMVMEYCVCGMQEMLDSVPEKRFPVCQAHGYFCQLIDGLEYLHSQGIVHKDIKPGNLLLTTGGTLKISDLGVAEALHPFAADDTCRTSQGSPAFQPPEIANGLDTFSGFKVDIWSAGVTLYNITTGLYPFEGDNIYKLFENIGKGSYAIPGDCGPPLSDLLKGMLEYEPAKRFSIRQIRQHSWFRKKHPPAEAPVPIPPSPDTKDRWRSMTVVPYLEDLHGADEDEDLFDIEDDIIYTQDFTVPGQVPEEEASHNGQRRGLPKAVCMNGTEAAQLSTKSRAEGRAPNPARKACSASSKIRRLSACKQQ [I35P] stands 1.69 ± 0.16; under MEVVDPQQLGMFTEGELMSVGMDTFIHRIDSTEVVYQPRRKRAKLIGKYLMGDLLGEGSYGKVKEVLDSETLCRRAVKILKKKKLRRIPNGEANVKKEIQLLRRLRHKNVIQLVDVLYNEEKQKMYMVMEYCVCGMQEMLDSVPEKRFPVCQAHGYFCQLIDGLEYLHSQGIVHKDIKPGNLLLTTGGTLKISDLGVAEALHPFAADDTCRTSQGSPAFQPPEIANGLDTFSGFKVDIWSAGVTLYNITTGLYPFEGDNIYKLFENIGKGSYAIPGDCGPPLSDLLKGMLEYEPAKRFSIRQIRQHSWFRKKHPPAEAPVPIPPSPDTKDRWRSMTVVPYLEDLHGADEDEDLFDIEDDIIYTQDFTVPGQVPEEEASHNGQRRGLPKAVCMNGTEAAQLSTKSRAEGRAPNPARKACSASSKIRRLSACKQQ [I35V], 0.925 ± 0.11; under MEVVDPQQLGMFTEGELMSVGMDTFIHRIDSTEVSYQPRRKRAKLIGKYLMGDLLGEGSYGKVKEVLDSETLCRRAVKILKKKKLRRIPNGEANVKKEIQLLRRLRHKNVIQLVDVLYNEEKQKMYMVMEYCVCGMQEMLDSVPEKRFPVCQAHGYFCQLIDGLEYLHSQGIVHKDIKPGNLLLTTGGTLKISDLGVAEALHPFAADDTCRTSQGSPAFQPPEIANGLDTFSGFKVDIWSAGVTLYNITTGLYPFEGDNIYKLFENIGKGSYAIPGDCGPPLSDLLKGMLEYEPAKRFSIRQIRQHSWFRKKHPPAEAPVPIPPSPDTKDRWRSMTVVPYLEDLHGADEDEDLFDIEDDIIYTQDFTVPGQVPEEEASHNGQRRGLPKAVCMNGTEAAQLSTKSRAEGRAPNPARKACSASSKIRRLSACKQQ [I35S], 1.49 ± 0.2.
On to MEVVDPQQLGMFTEGELMSVGMDTFIHRIDSTEVTYQPRRKRAKLIGKYLMGDLLGEGSYGKVKEVLDSETLCRRAVKILKKKKLRRIPNGEANVKKEIQLLRRLRHKNVIQLVDVLYNEEKQKMYMVMEYCVCGMQEMLDSVPEKRFPVCQAHGYFCQLIDGLEYLHSQGIVHKDIKPGNLLLTTGGTLKISDLGVAEALHPFAADDTCRTSQGSPAFQPPEIANGLDTFSGFKVDIWSAGVTLYNITTGLYPFEGDNIYKLFENIGKGSYAIPGDCGPPLSDLLKGMLEYEPAKRFSIRQIRQHSWFRKKHPPAEAPVPIPPSPDTKDRWRSMTVVPYLEDLHGADEDEDLFDIEDDIIYTQDFTVPGQVPEEEASHNGQRRGLPKAVCMNGTEAAQLSTKSRAEGRAPNPARKACSASSKIRRLSACKQQ [I35T], for which the STK11 functional score worked out at 1.34 ± 0.71.
The same measure for MEVVDPQQLGMFTEGELMSVGMDTFIHRIDSTEVIDQPRRKRAKLIGKYLMGDLLGEGSYGKVKEVLDSETLCRRAVKILKKKKLRRIPNGEANVKKEIQLLRRLRHKNVIQLVDVLYNEEKQKMYMVMEYCVCGMQEMLDSVPEKRFPVCQAHGYFCQLIDGLEYLHSQGIVHKDIKPGNLLLTTGGTLKISDLGVAEALHPFAADDTCRTSQGSPAFQPPEIANGLDTFSGFKVDIWSAGVTLYNITTGLYPFEGDNIYKLFENIGKGSYAIPGDCGPPLSDLLKGMLEYEPAKRFSIRQIRQHSWFRKKHPPAEAPVPIPPSPDTKDRWRSMTVVPYLEDLHGADEDEDLFDIEDDIIYTQDFTVPGQVPEEEASHNGQRRGLPKAVCMNGTEAAQLSTKSRAEGRAPNPARKACSASSKIRRLSACKQQ [Y36D]: 1.27 ± 0.22; for MEVVDPQQLGMFTEGELMSVGMDTFIHRIDSTEVIFQPRRKRAKLIGKYLMGDLLGEGSYGKVKEVLDSETLCRRAVKILKKKKLRRIPNGEANVKKEIQLLRRLRHKNVIQLVDVLYNEEKQKMYMVMEYCVCGMQEMLDSVPEKRFPVCQAHGYFCQLIDGLEYLHSQGIVHKDIKPGNLLLTTGGTLKISDLGVAEALHPFAADDTCRTSQGSPAFQPPEIANGLDTFSGFKVDIWSAGVTLYNITTGLYPFEGDNIYKLFENIGKGSYAIPGDCGPPLSDLLKGMLEYEPAKRFSIRQIRQHSWFRKKHPPAEAPVPIPPSPDTKDRWRSMTVVPYLEDLHGADEDEDLFDIEDDIIYTQDFTVPGQVPEEEASHNGQRRGLPKAVCMNGTEAAQLSTKSRAEGRAPNPARKACSASSKIRRLSACKQQ [Y36F]: 0.511 ± 0.078; for MEVVDPQQLGMFTEGELMSVGMDTFIHRIDSTEVIKQPRRKRAKLIGKYLMGDLLGEGSYGKVKEVLDSETLCRRAVKILKKKKLRRIPNGEANVKKEIQLLRRLRHKNVIQLVDVLYNEEKQKMYMVMEYCVCGMQEMLDSVPEKRFPVCQAHGYFCQLIDGLEYLHSQGIVHKDIKPGNLLLTTGGTLKISDLGVAEALHPFAADDTCRTSQGSPAFQPPEIANGLDTFSGFKVDIWSAGVTLYNITTGLYPFEGDNIYKLFENIGKGSYAIPGDCGPPLSDLLKGMLEYEPAKRFSIRQIRQHSWFRKKHPPAEAPVPIPPSPDTKDRWRSMTVVPYLEDLHGADEDEDLFDIEDDIIYTQDFTVPGQVPEEEASHNGQRRGLPKAVCMNGTEAAQLSTKSRAEGRAPNPARKACSASSKIRRLSACKQQ [Y36K]: 1.23 ± 0.15.
As to MEVVDPQQLGMFTEGELMSVGMDTFIHRIDSTEVIGQPRRKRAKLIGKYLMGDLLGEGSYGKVKEVLDSETLCRRAVKILKKKKLRRIPNGEANVKKEIQLLRRLRHKNVIQLVDVLYNEEKQKMYMVMEYCVCGMQEMLDSVPEKRFPVCQAHGYFCQLIDGLEYLHSQGIVHKDIKPGNLLLTTGGTLKISDLGVAEALHPFAADDTCRTSQGSPAFQPPEIANGLDTFSGFKVDIWSAGVTLYNITTGLYPFEGDNIYKLFENIGKGSYAIPGDCGPPLSDLLKGMLEYEPAKRFSIRQIRQHSWFRKKHPPAEAPVPIPPSPDTKDRWRSMTVVPYLEDLHGADEDEDLFDIEDDIIYTQDFTVPGQVPEEEASHNGQRRGLPKAVCMNGTEAAQLSTKSRAEGRAPNPARKACSASSKIRRLSACKQQ [Y36G], the STK11 functional score came out at 1.55 ± 0.11.
For MEVVDPQQLGMFTEGELMSVGMDTFIHRIDSTEVIAQPRRKRAKLIGKYLMGDLLGEGSYGKVKEVLDSETLCRRAVKILKKKKLRRIPNGEANVKKEIQLLRRLRHKNVIQLVDVLYNEEKQKMYMVMEYCVCGMQEMLDSVPEKRFPVCQAHGYFCQLIDGLEYLHSQGIVHKDIKPGNLLLTTGGTLKISDLGVAEALHPFAADDTCRTSQGSPAFQPPEIANGLDTFSGFKVDIWSAGVTLYNITTGLYPFEGDNIYKLFENIGKGSYAIPGDCGPPLSDLLKGMLEYEPAKRFSIRQIRQHSWFRKKHPPAEAPVPIPPSPDTKDRWRSMTVVPYLEDLHGADEDEDLFDIEDDIIYTQDFTVPGQVPEEEASHNGQRRGLPKAVCMNGTEAAQLSTKSRAEGRAPNPARKACSASSKIRRLSACKQQ [Y36A], the STK11 functional score was found to be 0.73 ± 0.18.
The same measure for MEVVDPQQLGMFTEGELMSVGMDTFIHRIDSTEVIIQPRRKRAKLIGKYLMGDLLGEGSYGKVKEVLDSETLCRRAVKILKKKKLRRIPNGEANVKKEIQLLRRLRHKNVIQLVDVLYNEEKQKMYMVMEYCVCGMQEMLDSVPEKRFPVCQAHGYFCQLIDGLEYLHSQGIVHKDIKPGNLLLTTGGTLKISDLGVAEALHPFAADDTCRTSQGSPAFQPPEIANGLDTFSGFKVDIWSAGVTLYNITTGLYPFEGDNIYKLFENIGKGSYAIPGDCGPPLSDLLKGMLEYEPAKRFSIRQIRQHSWFRKKHPPAEAPVPIPPSPDTKDRWRSMTVVPYLEDLHGADEDEDLFDIEDDIIYTQDFTVPGQVPEEEASHNGQRRGLPKAVCMNGTEAAQLSTKSRAEGRAPNPARKACSASSKIRRLSACKQQ [Y36I]: 1.03 ± 0.17; for MEVVDPQQLGMFTEGELMSVGMDTFIHRIDSTEVICQPRRKRAKLIGKYLMGDLLGEGSYGKVKEVLDSETLCRRAVKILKKKKLRRIPNGEANVKKEIQLLRRLRHKNVIQLVDVLYNEEKQKMYMVMEYCVCGMQEMLDSVPEKRFPVCQAHGYFCQLIDGLEYLHSQGIVHKDIKPGNLLLTTGGTLKISDLGVAEALHPFAADDTCRTSQGSPAFQPPEIANGLDTFSGFKVDIWSAGVTLYNITTGLYPFEGDNIYKLFENIGKGSYAIPGDCGPPLSDLLKGMLEYEPAKRFSIRQIRQHSWFRKKHPPAEAPVPIPPSPDTKDRWRSMTVVPYLEDLHGADEDEDLFDIEDDIIYTQDFTVPGQVPEEEASHNGQRRGLPKAVCMNGTEAAQLSTKSRAEGRAPNPARKACSASSKIRRLSACKQQ [Y36C]: 1.11 ± 0.25; for MEVVDPQQLGMFTEGELMSVGMDTFIHRIDSTEVIHQPRRKRAKLIGKYLMGDLLGEGSYGKVKEVLDSETLCRRAVKILKKKKLRRIPNGEANVKKEIQLLRRLRHKNVIQLVDVLYNEEKQKMYMVMEYCVCGMQEMLDSVPEKRFPVCQAHGYFCQLIDGLEYLHSQGIVHKDIKPGNLLLTTGGTLKISDLGVAEALHPFAADDTCRTSQGSPAFQPPEIANGLDTFSGFKVDIWSAGVTLYNITTGLYPFEGDNIYKLFENIGKGSYAIPGDCGPPLSDLLKGMLEYEPAKRFSIRQIRQHSWFRKKHPPAEAPVPIPPSPDTKDRWRSMTVVPYLEDLHGADEDEDLFDIEDDIIYTQDFTVPGQVPEEEASHNGQRRGLPKAVCMNGTEAAQLSTKSRAEGRAPNPARKACSASSKIRRLSACKQQ [Y36H]: 1.39 ± 0.48.
